# According to PMC4682968, “Studies on the Glutathione-Dependent Formaldehyde-Activating Enzyme from Paracoccus denitrificans” (PLoS ONE, 2015):
# B1: glutathione-dependent formaldehyde-activating enzyme (GFA) from Paracoccus denitrificans, wild type, non-tagged (enzyme)
# chain: GHMVDTSGVKIHPAVDNGIKPAQPGFAGGTLHCKCSTNPVRVAVRAQTAHNHVCGCTKCWKPEGAIFSQVAVVGRDALEVLEGAEKLEIVNAEAPIQRHRCRDCGVHMYGRIENRDHPFYGLDFVHTELSDEDGWSAPEFAAFVSSIIESGVDPSRMEAIRARLRELGLEPYDALSPPLMDAIATHIAKRSGALAA
# notes: an additional glycine residue and a histidine residue left on the N-terminus after TEV protease removal of the His-Tag; Expressed from a modified pET16b plasmid with a TEV site between the His-Tag and the insert; also called GFA WT; wild type non-tagged GFA; not shown: His-Tag, N-terminal, cleaved
# Target: the molecule itself
# Test: SEC; analytical size-exclusion chromatography of wild type non-tagged GFA, calibrated with standard protein samples; apparent Mw = 42 kDa
protein,measurement,value
B1,stoichiometry N,2
